Source: patent publication US20170321240

Columns and labels:
[1] = tested on: Left TALEN Slc35c1 (synthetic construct (Xanthomonas AvrBs3 scaffold)); test: cell_activity; details: TALEN pair with right TALEN, 19-bp spacer; T7E1 assay 72 h, CHO cells
[2] = tested on: Right TALEN Slc35c1 (synthetic construct (Xanthomonas AvrBs3 scaffold)); test: cell_activity; details: TALEN pair with left TALEN, 19-bp spacer; T7E1 assay 72 h, CHO cells

Substance	activity (% gene modification) [1]	activity (% gene modification) [2]
Slc35c1 exon 1 left TALEN half-site	7.3	
Slc35c1 exon 1 right TALEN half-site		7.3
